# Reference: PMC9407403 (Proceedings of the National Academy of Sciences of the …, 2022)
# B1: Fab fragment of nAb X10 (Fab, V domains shown)
# VH: EVQLQQSGPELVKPGASVKISCKTSGYTFTEYTLHWVKQSHGKSLEWIGGFDPNFGGATYNLKFEDKATLTVDKSSNTAYMELRSLTSEDSAVFYCARGDYGTSYAYFDFWGQGTTLTVSS
# VL: DIVLTQSPASLAVSLGQRAAISCRASQSVSTSSHNYVHWYQQRPGQPPKLLIKYASNLECGVPARFSGSGSGTDFTLNIHPVEEEDSAAYYCQHSWEIPYTFGGGTKLEIK
# B2: Fab fragment of nAb X01 (Fab, V domains shown)
# VH: EIQLQQSGPELVAPGASVKVSCKASGYAFTSYNMYWVRQSHGKSLEWIGYIVPYNGGTTYNQEFKGKATLTVDKSSNTAYIHLNSLTSEDSAVYYCAKEGTYYGYDGVLADWGQGTLVT
# VL: DIQMTQSSSYLSVSLGGRVTITCKASDHINNWLAWYQQKPGNAPRLLISGVTNLETGVPSRFSGSGSGKNFTLSIASLQTEDVATYYCQQYWSFPWTFGGGTKLEIR
# Target: T1, SARS-CoV-2 WT spike (S) protein (SARS-CoV-2 prototype Wuhan-Hu-1 …, UniProt P0DTC2)
# T1 construct: source: bought: Sino Biological Inc., purified
# Assay: cryo-EM structure
# Details: both partners purified
row,Binder,binding result
1,B1,binds
2,B2,binds
